Reference: the supplement of paper PMC12636428

Tested on: Saccharomyces cerevisiae
Assay: transcriptional activation domain activity (GFP:mCherry ratio, weighted mean of sorted bins, harmonized to initial dataset scale) (arbitrary fluorescence ratio units); higher = stronger transcriptional activation
Conditions: beta-estradiol 1 µM; induction time 4 h
In short: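 For this assay, yeast diploids with a GFP reporter carried barcoded protein tiles at URA3, each fused to an estradiol-inducible synthetic transcription factor. Induction was a 1:5 dilution into SC with 1 uM beta-estradiol for 4 hours at 30 °C, followed by sorting into 8 bins by GFP:mCherry ratio and barcode sequencing. Tiles under 50 reads were dropped, and activation activity was calculated as the read-weighted mean of bin median fluorescence, averaged across barcodes and linearly mapped onto the initial dataset scale.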

Sequence	transcriptional activation domain activity
YFLLSILFFFFSNNFTFTLLYLLHASYHIQSLYRHILVSVFCNYPSLLLFFFL	53000
YFMVYFIFYRNLFARLRSFDQFALVQLMSSFWVCIWYPFSMTSLCHRVVQYFN	69300
YFRAEAMKTFFSRNYWQLEVRLYVPTKRKGIFHGKDWRINVLLGMWWVVVHIA	55100
YFVLLPPTFILLAFPLLVWEFCWLSSSDFLCLLSMGFLFISLSFFFFFFLGNW	40400
YFVVRGFLFSSAVGCLGLRLGLGLFKRVIYWDQKLLLFLFLFPFFFPPLFSTR	60900
YFVYLLQLIYYICFSIGVSFSMKVFDYVTFMDSITGHAGHMLCVCIFFLIGAV	75800
YFWVLGAIPYFVFHSAFCLLWSLFFWFSCWYLSFKILLFRCFFFLFYYSMPSQ	55200
YFYGLERRHVTCSQLAYYLCDKALTPMFCGGRVGNDCFDPWGRLLTYWCFLPL	77300
YFYMRLISCLGLIAHSPMLWATGHNSARHELIQKMDFFPKRIGYLLSRLCVLI	51600
YGADDFFFPPEGCDNNMLYPQTATSWNVLPPQAMQPAPTYVGRPYTPNYRSTP	71900
YGALGDNTVTLRRPDDSDIVVLFDDMVVHAWIKMLIVAKLICCVILRRTAALG	46500
YGARPAAAAEEEEAAEPAEEEAAGEATEAEAGEEEAEATGEEETAEGEGAEGA	25500
YGCNELIFNPLIDWWRKGPITRQLRTFMWSDAPLHYKIGMLSYMFSYYALSGA	36300
YGFGGFLSVPLLFFIAFEFPRLHSLLYQLYLFVCVWSWAYYSTIIMFSCHFYP	57500
YGILTLQYLVGVIWVLDTLHTIFVTHMVYTYLVTNFGDYLALGHNIWSFNLHV	37100
YGLIYSILLHLCAVFISSLRRLTVLRELLRMLFLFSCFWFAVSISYMSVLYTI	49300
YGVHLLARFAWWFPSMSAIIAKLEGTINKLHILSHKELCQIIHNLNWLLYVGL	71400
YGVPIPQNSPATTTNLSGSVDEPQYQRRNIDFVRYDEEYVYHEDMDDELTMLH	28400
YHALKVYRGLGLLLVNGVTGICLSICVIVVACFGHFHFSPYWVLQWAVMSRIV	63500
YHFALSYKRWINRVIIMIWCKLWWLRWCAFMQLFFRRNLRYNFWWRWIRVAGV	56700
YHFCYHLRLYLYAFQPPLFLRLCHFFSYDGWYLGFTWGFFLFFRFHFPIPSFL	45900

Sequence	transcriptional activation domain activity
YHTRNRLLLLCAQAHELAVLGVRELARCLRYLPKVHYMPVHWSTIFTWAEFCA	75600
YHVQQSNIQLYDNDQVHIFLRKHFLYWLEALSLIGRLYEGVLALKILESILTL	61500
YIAPCGSWTPYMNLMLGGTVCIFIGFDVFSPFSYRGFITNYFGLFWFCIMFIF	53600
YIAPCGTWTPYMNLFLGSTVCIFIGFDVFAPFSYRGLITNYFGLLWFCFMFLF	78400
YIATGRGFATTRISFSILYSRFAGPSIYMGMRNLLLLLYATIAIWMPHLIYFW	48100
YICQYHGSLIGKHFKSLMQVMPFLIYDLVAQDILCAWNIIGVLVVLLWHTEIE	81900
YIFMISLSSYSLSLINTLVSFGLLLLYTPSYRLWGWNPPFRAPKIIIFLFFLS	48300
YIIPFAWLAAIGHFAVSLVIFDFAPLIHTWDVTLETLSHWLFYFRLSSILYNF	35200
YIKGVVLALWILDTFGMCLIFHILYWYLITNYGNPLSITEPIWSIILHIMVTA	48500
YIKVLVAVLFVLDTLHVYYLSATFWVVCIRGRLDISGLTVLPWQTPASILMTV	42300
YILARYSIFFLYYLQFSRGYIPEYLNPTLPSYEEIESWLFLKTVWFQVLIWTV	65500
YILAVGLILRLISYLSRAKVRLMYHWSELWRNLLSLIRFLNTYSADLLSSSTP	66700
YILRLFRDYVFFQVDANGKRTFDLGHMMECLLRMDCGSDELICLTSSDEKNVI	49100
YILSSLVTYKGIINHNDQSILILGIPKLHRLLMENVHVLHLLINSCITTLASC	44000
YILYMLRMSVRELTRSELLIVRLGRPTKLIIAGNWEINLLGIFVGLGIVCTEV	59400
YINAMLGLPRSISPDDFDQTLPLDLSDENITEVAYLPENQHSVLSSTGISNEH	58400
YINCGIKMFDPSSIITRRYIRMWPRKQANRVLGMLDKMSQSGGFTKVFFRLLY	58000
YIPEHLRSYVLVAHLLEMCNLHTVFLPQLLDPLIVLCLQHRLTIQAFAFIKTR	77300
YIPVNYFLVVLYSNKEYPGLYKEIEKGLILLYHICTIRNDGTMFLNMKLYKNK	36000
YIQDIQCLQFENGGVGRMELEAKHWMIYHGILLAKILRLLEDSPLKRFTIVNA	47800
YISHSRCLLVFPVLPFFVHYLLFVFSFALLQIIALEILSLVLFVLDLLSLFPH	32800

Sequence	transcriptional activation domain activity
YKCVGLSPDCKTAFFMNVTAFLVCPLANFESGKIPKTDLILLSKSSRECKYKA	29600
YKEWDELVKYFFRQVTKRVQERPELVVEMLFSKIPATIFFLDHGYDRELPSRA	46400
YKKLQWHYFLFDLCYYVNILNFVFLWIFPHSPSLFVACYCLSLGSVASAIITW	27700
YKNLSKYPIVKSAVALISLVQSLCRTMHSMPFHTEEYIRMIEVVLLKYYEKCY	34300
YKTCILPGADPGVNYIVGDDYLAVNYGYYVWQRWINFIAVCLFFLFFTVLTCL	55900
YKTLDSCCSQLEGYLSRFALKLSHTHLLHLQRLLTLLHAFIAFTKEWQHNARK	59400
YKTTMARLIYLMDDKFKLFDHLRALKKYLLLGQGDFIALLMESLASNLDRPAN	55100
YKVPTASLKDGCLCVNVASEKNFEKDVREKASIYLPSVGKVTILMLLRNLLRL	55000
YLAGPRVPFAPLSLPGIFLPTTWWNPGVFYFWTWRNHFYKTWGETVGFAPWFS	80500
YLAYCWQPDISWCPNLTLLNHWYNLTPYWFILMFIWNNLSCILMMINMIQLYF	67800
YLEWLLLHHIHTIVGRRKDINWHIVCMDRWNIWYNTLRLSDTFALVGIIISIF	58500
YLFLFYLTILVWFGLFYFIQFFFYLSFHFLFCFVLLLFFTFVFWGVFIFCFFF	45500
YLFYRLGLNIREIQLRSRGLILLQSLSVLGWSLLASSFSGLYFIGYPCFIHWW	42700
YLHAVLCELQSSFNRKATTRSKLTHTPNLPEYTFPFAWLTLPFAAARRCTPAG	66600
YLIGFIGFVMSLQKQYLKSQFGLFCWVHMSLLVIVVSSHFIINNIFEGLIWFW	79300
YLIIISFFSFSFYLLIHMQYINPKGHPPLKFYQLIIWRWCATMCAYFFLSLAY	62000
YLIILILFCFCHLWELDRWAHSLASQEKLRYSCVIGLTIFRLRCPLSLTKDAP	48900
YLINLLYQLLWLVPFSAPLSLRSTLAKVYEFGGVHSGSAICSVLWFILLTVFL	64900
YLIRLILVILLMEFMLHYIYVQALCKSKNFENYTPYQLLMISFFSLKFIWLKL	58900
YLKELTRCAKLPYSTRAMKNLNNVAITCACTLLVSVPHFNFRGDLLKIIVAKV	39500
YLMHGLVLFSIVPSVFIPIYEYHQLSYIAASMICAFIYIIFAVICGWLFWWTV	40600

Sequence	transcriptional activation domain activity
YLMVLYYTSRPVLFLVCAGNELCFIFIYCLGWFSHWLLWLGLLISIPVCLFKQ	71800
YLPTLPDAFPFGADIGSLDAISNIPWMSWNPVMAHFSFPWFMDELEMPLELPD	102000
YLPYIVFPLTPQLSGPLCELYPSRGNLYDIFLHSILIMMQLPFILSVPFWLLF	45500
YLSFLGIGVTFYTFLLLFFFLEDLEDFLVFFEGVLMIFLKLFIVFWTSLLVFL	62000
YLTRHVRLFGKLFRRMQQLHATRFVTLPLSSDLILYYWSKVVQASTALPEFIA	51600
YLVHAGVTQDFSLIGRKGVYSLGELEEIRHWVHQALLHCRLLLVCRKALQLVY	71800
YLVMVYAWILWLSLVVLLALIAFYLFMVIWNIDRGTPSPVCLVVFCMQFICTL	44200
YLVRHRGEIFDNFQARKEQLLCPVYIRWLRLIWQILLSCCHVIFKSHPWMVFM	57700
YLYLCLQLLYYCRYCVFAIYTCHLPFAYTCMLMLLATGPYFYGLFICLRYLCC	24900
YMCTCAWSVIWAQQLYTRGPLLQFIAKHTNYAGKPSMTFNQIVLLWVLYQIQG	49800
YMEIVCEKQLLVVSKVNRGWLYMAITQADLVYWATLSLASHYRDSKSVALTYF	62500
YMGSVNLVHYYGVRTFSFILLGPCLTLVVVYRVLALFQSANQQFYILVLAYIA	36200
YMIGLLFRTYFKLKSLNLCKNVLRAVSVSELPSLSEFPKAHQVTFRYYTGVLS	70100
YMYLVIVVTFLSILKTSQAIAVVWVQNVLFFANPDIARTLLNIAWWQNSVTLM	54800
YMYSAFMRFFILGWPSYLVVVASIAVVLLLHILYFLVQLQLKNIFLLLLHCFA	60400
YNGLPRFKWFISTVWVIYAGSCLLPFAGMVGTQILPLNRCIGVFKKPYPAILF	63300
YNGYHKVGEHYLLCKAVVDHKKKSSIHVHLIEVQPTVFNILEGLLYPKILFSS	53500
YNIRAKGFNIFNITISVALVFNQYVNPIALAALTWKYYVVYCVWLVCECIFLY	60100
YNIRAKGFNIFNITISVGLIFNQYVNPIALAVLTWKYYVVYCAWLLCEVLFLY	81900
YNLVLSHNLVLSHLWHHYYVQHLHGLLRSFSSINLPFLLHLPLSLLLLHWVTW	55700
